Data published in patent US20170296640A1 (IMMATICS BIOTECHNOLOGIES, published 2017).
No end group written: not given here.

Target: T1, HLA-A*02:01 (peptide-receptive MHC class I monomer after UV cleavage of the UV-sensitive ligand) (human)
T1 construct: MHC monomers loaded by UV-ligand exchange and captured on streptavidin plates
Assay: UV ligand-exchange ELISA; exchange yield grade (+ >=10%, ++ >=20%, +++ >=50%, ++++ >=75%)
Description: Candidate peptides for T cell based therapies according to the present invention were further tested for their MHC binding capacity (affinity). The individual peptide-MHC complexes were produced by UV-ligand exchange, where a UV-sensitive peptide is cleaved upon UV-irradiation, and exchanged with the peptide of interest as analyzed. Only peptide candidates that can effectively bind and stabilize the peptide-receptive MHC molecules prevent dissociation of the MHC complexes. To determine the yield of the exchange reaction, an ELISA was performed based on the detection of the light chain (β2m) of stabilized MHC complexes. The assay was performed as generally described in Rodenko et al. (Rodenko et al., 2006).
96 well MAXISorp plates (NUNC) were coated over night with 2 ug/ml streptavidin in PBS at room temperature, washed 4× and blocked for 1 h at 37° C. in 2% BSA containing blocking buffer. Refolded HLA-A*02:01/MLA-001 monomers served as standards, covering the range of 15-500 ng/ml. Peptide-MHC monomers of the UV-exchange reaction were diluted 100 fold in blocking buffer. Samples were incubated for 1 h at 37° C., washed four times, incubated with 2 ug/ml HRP conjugated anti-β2m for 1 h at 37° C., washed again and detected with TMB solution that is stopped with […]. Absorption was measured at 450 nm. Candidate peptides that show a high exchange yield (preferably higher than 50%, most preferred higher than 75%) are generally preferred for a generation and production of antibodies or fragments thereof, and/or T cell receptors or fragments thereof, as they show sufficient avidity to the MHC molecules and prevent dissociation of the MHC complexes.

B1: ALVPTPALFYL (SEQ ID NO: 240) (peptide)
peptide: ALVPTPALFYL
- peptide exchange yield: 50 to 75%

B2: LMGPVVHEV (SEQ ID NO: 262) (peptide)
peptide: LMGPVVHEV
- peptide exchange yield: ≥ 75%

B3: ALKKHLTSV (SEQ ID NO: 22) (peptide)
peptide: ALKKHLTSV
- peptide exchange yield: 50 to 75%

B4: ILSPWGAEV (SEQ ID NO: 229) (peptide)
peptide: ILSPWGAEV
- peptide exchange yield: ≥ 75%

B5: ALLELENSV (SEQ ID NO: 219) (peptide)
peptide: ALLELENSV
- peptide exchange yield: 20 to 50%

B6: TVLDGLEFKV (SEQ ID NO: 259) (peptide)
peptide: TVLDGLEFKV
- peptide exchange yield: ≥ 75%

B7: SLDVYELFL (SEQ ID NO: 235) (peptide)
peptide: SLDVYELFL
- peptide exchange yield: 50 to 75%

B8: AVLGFSFRL (SEQ ID NO: 24) (peptide)
peptide: AVLGFSFRL
- peptide exchange yield: 50 to 75%

B9: KLIQLPVVYV (SEQ ID NO: 245) (peptide)
peptide: KLIQLPVVYV
- peptide exchange yield: 50 to 75%

B10: IIAEYLSYV (SEQ ID NO: 228) (peptide)
peptide: IIAEYLSYV
- peptide exchange yield: 20 to 50%

B11: GILDFZVFL (SEQ ID NO: 242) (peptide)
peptide: GILDFXVFL
modifications: not fully specified
- peptide exchange yield: ≥ 75%

B12: NLLEQFILL (SEQ ID NO: 248) (peptide)
peptide: NLLEQFILL
- peptide exchange yield: 50 to 75%

B13: AQFGAVLEV (SEQ ID NO: 217) (peptide)
peptide: AQFGAVLEV
- peptide exchange yield: 50 to 75%

B14: ILTGTPPGV (SEQ ID NO: 264) (peptide)
peptide: ILTGTPPGV
- peptide exchange yield: 50 to 75%

B15: GLMDNEIKV (SEQ ID NO: 263) (peptide)
peptide: GLMDNEIKV
- peptide exchange yield: 50 to 75%

B16: ILEPFLPAV (SEQ ID NO: 244) (peptide)
peptide: ILEPFLPAV
- peptide exchange yield: 50 to 75%

B17: SLLETGSDLLL (SEQ ID NO: 267) (peptide)
peptide: SLLETGSDLLL
- peptide exchange yield: 50 to 75%

B18: FLSPLLPLL (SEQ ID NO: 224) (peptide)
peptide: FLSPLLPLL
- peptide exchange yield: 20 to 50%

B19: FLIGQGAHV (SEQ ID NO: 212) (peptide)
peptide: FLIGQGAHV
- peptide exchange yield: 50 to 75%

B20: NLQRTVVTV (SEQ ID NO: 234) (peptide)
peptide: NLQRTVVTV
- peptide exchange yield: 20 to 50%

B21: IVMGAIPSV (SEQ ID NO: 231) (peptide)
peptide: IVMGAIPSV
- peptide exchange yield: 50 to 75%

B22: SLFDGFFLTA (SEQ ID NO: 236) (peptide)
peptide: SLFDGFFLTA
- peptide exchange yield: ≥ 75%

B23: VLLESLVEI (SEQ ID NO: 249) (peptide)
peptide: VLLESLVEI
- peptide exchange yield: ≥ 75%

B24: IMDDDSYGV (SEQ ID NO: 230) (peptide)
peptide: IMDDDSYGV
- peptide exchange yield: 20 to 50%

B25: FLDTSNQHLL (SEQ ID NO: 25) (peptide)
peptide: FLDTSNQHLL
- peptide exchange yield: 50 to 75%

B26: VVVDSDSLAFV (SEQ ID NO: 270) (peptide)
peptide: VVVDSDSLAFV
- peptide exchange yield: ≥ 75%

B27: KVLEMETTV (SEQ ID NO: 247) (peptide)
peptide: KVLEMETTV
- peptide exchange yield: 50 to 75%

B28: FIPDFIPAV (SEQ ID NO: 241) (peptide)
peptide: FIPDFIPAV
- peptide exchange yield: 20 to 50%

B29: YINEDEYEV (SEQ ID NO: 213) (peptide)
peptide: YINEDEYEV
- peptide exchange yield: 20 to 50%

B30: FLQEWEVYA (SEQ ID NO: 257) (peptide)
peptide: FLQEWEVYA
- peptide exchange yield: ≥ 75%

B31: FLGSFIDHV (SEQ ID NO: 26) (peptide)
peptide: FLGSFIDHV
- peptide exchange yield: 50 to 75%

B32: MLEVHIPSV (SEQ ID NO: 233) (peptide)
peptide: MLEVHIPSV
- peptide exchange yield: 50 to 75%

B33: KLPVPLESV (SEQ ID NO: 246) (peptide)
peptide: KLPVPLESV
- peptide exchange yield: 50 to 75%

B34: GVIDPVPEV (SEQ ID NO: 226) (peptide)
peptide: GVIDPVPEV
- peptide exchange yield: 20 to 50%

B35: GLPDLDIYL (SEQ ID NO: 243) (peptide)
peptide: GLPDLDIYL
- peptide exchange yield: ≥ 75%

B36: KVMEGTVAA (SEQ ID NO: 232) (peptide)
peptide: KVMEGTVAA
- peptide exchange yield: 20 to 50%

B37: FLAEAPTAL (SEQ ID NO: 220) (peptide)
peptide: FLAEAPTAL
- peptide exchange yield: 20 to 50%

B38: ALVEDIINL (SEQ ID NO: 23) (peptide)
peptide: ALVEDIINL
- peptide exchange yield: ≥ 75%

B39: VLTNVGAAL (SEQ ID NO: 250) (peptide)
peptide: VLTNVGAAL
- peptide exchange yield: 50 to 75%

B40: KLDHTLSQI (SEQ ID NO: 272) (peptide)
peptide: KLDHTLSQI
- peptide exchange yield: 50 to 75%

B41: FLQDIPDGLFL (SEQ ID NO: 223) (peptide)
peptide: FLQDIPDGLFL
- peptide exchange yield: 20 to 50%

B42: VLYELFTYI (SEQ ID NO: 251) (peptide)
peptide: VLYELFTYI
- peptide exchange yield: 50 to 75%

B43: FLNQESFDL (SEQ ID NO: 27) (peptide)
peptide: FLNQESFDL
- peptide exchange yield: 50 to 75%

B44: FLFDGSMSL (SEQ ID NO: 214) (peptide)
peptide: FLFDGSMSL
- peptide exchange yield: 50 to 75%

B45: YLLDQPVLEQRL (SEQ ID NO: 271) (peptide)
peptide: YLLDQPVLEQRL
- peptide exchange yield: ≥ 75%

B46: RIYPFLLMV (SEQ ID NO: 258) (peptide)
peptide: RIYPFLLMV
- peptide exchange yield: 50 to 75%

B47: QLFEEEIEL (SEQ ID NO: 215) (peptide)
peptide: QLFEEEIEL
- peptide exchange yield: 20 to 50%

B48: VLQNVAFSV (SEQ ID NO: 269) (peptide)
peptide: VLQNVAFSV
- peptide exchange yield: ≥ 75%

B49: RLDEAFDFV (SEQ ID NO: 260) (peptide)
peptide: RLDEAFDFV
- peptide exchange yield: ≥ 75%

B50: YQYGAVVTL (SEQ ID NO: 238) (peptide)
peptide: YQYGAVVTL
- peptide exchange yield: 50 to 75%

B51: YLDRLIPQA (SEQ ID NO: 237) (peptide)
peptide: YLDRLIPQA
- peptide exchange yield: 50 to 75%

B52: YSDDDVPSV (SEQ ID NO: 253) (peptide)
peptide: YSDDDVPSV
- peptide exchange yield: ≥ 75%

B53: GMWNPNAPVFL (SEQ ID NO: 255) (peptide)
peptide: GMWNPNAPVFL
- peptide exchange yield: ≥ 75%

B54: QLTEMLPSI (SEQ ID NO: 266) (peptide)
peptide: QLTEMLPSI
- peptide exchange yield: ≥ 75%

B55: FLAPDNSLLLA (SEQ ID NO: 221) (peptide)
peptide: FLAPDNSLLLA
- peptide exchange yield: ≥ 75%

B56: FLPETRIMTSV (SEQ ID NO: 261) (peptide)
peptide: FLPETRIMTSV
- peptide exchange yield: ≥ 75%

B57: FLYSETWNI (SEQ ID NO: 254) (peptide)
peptide: FLYSETWNI
- peptide exchange yield: ≥ 75%

B58: ALQETPPQV (SEQ ID NO: 256) (peptide)
peptide: ALQETPPQV
- peptide exchange yield: 50 to 75%

B59: YLGDLIMAL (SEQ ID NO: 252) (peptide)
peptide: YLGDLIMAL
- peptide exchange yield: 50 to 75%

B60: ALDQFLEGI (SEQ ID NO: 218) (peptide)
peptide: ALDQFLEGI
- peptide exchange yield: 50 to 75%

B61: ILWHFVASL (SEQ ID NO: 265) (peptide)
peptide: ILWHFVASL
- peptide exchange yield: ≥ 75%

B62: FLIETGTLL (SEQ ID NO: 222) (peptide)
peptide: FLIETGTLL
- peptide exchange yield: 50 to 75%

B63: VLIDDTVLL (SEQ ID NO: 239) (peptide)
peptide: VLIDDTVLL
- peptide exchange yield: 50 to 75%

B64: KVVSNLPAI (SEQ ID NO: 216) (peptide)
peptide: KVVSNLPAI
- peptide exchange yield: 20 to 50%

B65: VLFPLPTPL (SEQ ID NO: 268) (peptide)
peptide: VLFPLPTPL
- peptide exchange yield: ≥ 75%

B66: IIAEGIPEA (SEQ ID NO: 227) (peptide)
peptide: IIAEGIPEA
- peptide exchange yield: 20 to 50%
